Each block holds one substance with its values, some of them ahead of it.
How the values were obtained:
[1] = target: chicken TAPBPR, luminal domain (chicken (G. gallus)); assay: SPR; biotinylated TAPBPR (about 1000 RU) on a streptavidin chip; HLA UV-irradiated 20 min at 365 nm just before injection at 0-20 μM; 25°C; 150 mM NaCl, 20 mM sodium phosphate pH 7.4, 0.1% Tween 20
[2] = target: hTAPBPR^FLQ (S104F, K211L, R270Q), luminal domain, C94S (human); assay: SPR; biotinylated hTAPBPR mutants immobilised on a streptavidin chip; Ac-6-FP-loaded MR1 C262S flowed over at 0-100 µM; 25°C; 150 mM NaCl, 20 mM sodium phosphate pH 7.4, 0.1% Tween 20; one site-specific binding fit
[3] = target: hTAPBPR^KRQ (R105K, K211R, R270Q), luminal domain, C94S (human); assay: as above
[4] = target: hTAPBPR^RQ (K211R, R270Q), luminal domain, C94S (human); assay: as above
[5] = target: chicken TAPBPR, luminal domain (chicken (G. gallus)); assay: ITC; 150 μM pHLA-B*08:01 in the syringe titrated into 5 μM chTAPBPR in the cell, both with 0.45 mM FLRGRAJGL; 150 mM NaCl, 20 mM sodium phosphate pH 7.2; one-site model; apparent KD
[6] = target: chicken TAPBPR, luminal domain (chicken (G. gallus)); assay: SPR; biotinylated TAPBPR (about 1000 RU) on a streptavidin chip; peptide-loaded HLA, not UV-irradiated, injected at 0-20 μM; 25°C; 150 mM NaCl, 20 mM sodium phosphate pH 7.4, 0.1% Tween 20
[7] = target: human TAPBPR (TAP binding protein, related), luminal domain (human); assay: as above
[8] = target: human TAPBPR (TAP binding protein, related), luminal domain (human); assay: SPR; biotinylated TAPBPR (about 1000 RU) on a streptavidin chip; HLA UV-irradiated 20 min at 365 nm just before injection at 0-20 μM; 25°C; 150 mM NaCl, 20 mM sodium phosphate pH 7.4, 0.1% Tween 20
[9] = target: chicken TAPBPR, luminal domain (chicken (G. gallus)); assay: SPR; biotinylated TAPBPR on a streptavidin chip; MR1 C262S injected at 0-100 μM; 25°C; 150 mM NaCl, 20 mM sodium phosphate pH 7.4, 0.1% Tween 20
[10] = target: human TAPBPR (TAP binding protein, related), luminal domain (human); assay: as above
[11] = target: HLA-A*02:06/hβ2m loaded with a placeholder peptide (human)
[12] = target: peptide-loaded HLA-A*02:01/hβ2m (photolabile peptide KILGFVFJV) (human)
[13] = target: peptide-deficient (empty) HLA-A*01:01/hβ2m (human)
[14] = target: hTAPBPR^FLQ (S104F, K211L, R270Q), luminal domain, C94S (human); assay: SPR; biotinylated TAPBPR (about 1000 RU) immobilised on a streptavidin chip; peptide-loaded HLA (photolabile peptide, no UV) flowed over at 0-20 µM; 25°C; 150 mM NaCl, 20 mM sodium phosphate pH 7.4, 0.1% Tween 20; 30 µl/min, 60 s injection, 180 s dissociation; kinetic fit or one site-specific binding …
[15] = target: hTAPBPR^KRQ (R105K, K211R, R270Q), luminal domain, C94S (human); assay: as above
[16] = target: hTAPBPR^RQ (K211R, R270Q), luminal domain, C94S (human); assay: as above
[17] = target: peptide-deficient (empty) HLA-A*11:01/hβ2m (human)
[18] = target: peptide-deficient (empty) HLA-A*24:02/hβ2m (human)
[19] = target: hTAPBPR^FLQ (S104F, K211L, and R270Q), soluble ectodomain (human); assay: SPR; biotinylated TAPBPR (about 1000 RU) on a streptavidin chip; HLA UV-irradiated 20 min at 365 nm just before injection at 0-20 μM; 25°C; 150 mM NaCl, 20 mM sodium phosphate pH 7.4, 0.1% Tween 20
[20] = target: hTAPBPR^RQ (K211R and R270Q), soluble ectodomain (human); assay: as above
[21] = target: HLA-A*02:71/hβ2m loaded with a placeholder peptide (human)
[22] = target: HLA-A*02:77/hβ2m loaded with a placeholder peptide (human)
[23] = target: peptide-deficient (empty) HLA-A*02:01/hβ2m (human)
[24] = target: peptide-deficient (empty) HLA-A*02:01/hβ2m (human); remark: listed apart in the source
[25] = target: peptide-deficient (empty) HLA-B*37:01/hβ2m (human)

Substance: peptide-loaded HLA-B*08:01/hβ2m (photolabile peptide FLRGRAJGL) (from UniProt P61769 21-119) (peptide-MHC)
Kd [5]: 4600 nM | Kd [6]: 3190 nM

Substance: acetyl-6-formylpterin-loaded MR1 C262S/hβ2m (from UniProt P61769 21-119) (complex)
Kd [9]: 19200 nM | Kd [10]: 98700 nM

Substance: hTAPBPR^KRQ (R105K, K211R, and R270Q), soluble ectodomain (domain or fragment)
k2overall of peptide exchange (FP), against hTAPBPR [11]: 9 fold | k2overall of exchange of KILGFVFβFV-loaded HLA-A*02:01 with TAMRA-[…] (FP), against hTAPBPR [12]: 60 fold | kapp of fluorescent peptide binding to HLA-A*01:01 with 5 μM TAPBPR (FP) [13]: 0.00013 s⁻¹

Substance: peptide-loaded HLA-A*02:01/hβ2m/KILGFVFJV (from UniProt P61769 21-119) (peptide-MHC)
Kd [14]: 1260 nM | Kd [15]: 1380 nM | Kd [16]: 1310 nM

Substance: peptide-loaded HLA-A*29:02/hβ2m (photolabile peptide) (from UniProt P61769 21-119) (peptide-MHC)
Kd [6]: 170 nM | Kd [7]: 190 nM

Substance: peptide-loaded HLA-A*24:02/hβ2m (photolabile peptide VYGJVRACL) (from UniProt P61769 21-119) (peptide-MHC)
Kd [6]: 17400 nM | Kd [7]: 10900 nM

Substance: chicken TAPBPR, luminal domain (domain or fragment)
overall exchange rate (FP), against hTAPBPR [17]: > 17 fold | overall exchange rate (FP), against hTAPBPR [18]: > 7 fold | kapp of fluorescent peptide binding to HLA-A*01:01 with 5 μM TAPBPR (FP) [13]: 0.00017 s⁻¹

Substance: peptide-loaded HLA-A*02:01/hβ2m (photolabile peptide KILGFVFJV) (from UniProt P61769 21-119) (peptide-MHC)
Kd [7]: 9440 nM

Substance: peptide-loaded HLA-A*68:02/hβ2m (photolabile peptide) (from UniProt P61769 21-119) (peptide-MHC)
Kd [6]: 560 nM | Kd [7]: 220 nM

Substance: human TAPBPR (TAP binding protein, related), luminal domain (domain or fragment)
k2overall of peptide exchange (FP) [21]: 335 M⁻¹ s⁻¹ | k2overall of peptide exchange (FP) [22]: 17200 M⁻¹ s⁻¹ | k2overall of peptide exchange (FP) [23]: 1160 M⁻¹ s⁻¹ | k2overall of peptide exchange (FP), against chTAPBPR [24]: 8 fold | k2overall of peptide exchange (FP), against chTAPBPR [25]: 5 fold lower

Substance: peptide-deficient (empty) HLA-A*30:01/hβ2m (from UniProt P61769 21-119) (complex)
Kd [1]: 1280 nM | Kd [8]: 990 nM

Substance: peptide-deficient (empty) HLA-B*08:01/hβ2m (from UniProt P61769 21-119) (complex)
Kd [1]: 1890 nM

Substance: peptide-deficient (empty) HLA-B*37:01/hβ2m (from UniProt P61769 21-119) (complex)
Kd [1]: 2190 nM | Kd [8]: 7020 nM

Substance: peptide-deficient (empty) HLA-A*68:02/hβ2m (from UniProt P61769 21-119) (complex)
Kd [1]: 430 nM | Kd [8]: 120 nM

Substance: hTAPBPR^FLQ (S104F, K211L, and R270Q), soluble ectodomain (domain or fragment)
k2overall of peptide exchange (FP), against hTAPBPR [11]: 14 fold | k2overall of exchange of KILGFVFβFV-loaded HLA-A*02:01 with TAMRA-[…] (FP), against hTAPBPR [12]: 90 fold | kapp of fluorescent peptide binding to HLA-A*01:01 with 5 μM TAPBPR (FP) [13]: 7e-05 s⁻¹

Substance: hTAPBPR^RQ (K211R and R270Q), soluble ectodomain (domain or fragment)
k2overall of peptide exchange (FP), against hTAPBPR [11]: 9 fold | k2overall of exchange of KILGFVFβFV-loaded HLA-A*02:01 with TAMRA-[…] (FP), against hTAPBPR [12]: 60 fold | kapp of fluorescent peptide binding to HLA-A*01:01 with 5 μM TAPBPR (FP) [13]: 0.00014 s⁻¹

Substance: peptide-deficient (empty) HLA-A*29:02/hβ2m (from UniProt P61769 21-119) (complex)
Kd [1]: 290 nM | Kd [8]: 260 nM

Now from value to substance:

Kd [1]: 1460 nM
Substance: peptide-deficient (empty) HLA-A*01:01/hβ2m (from UniProt P61769 21-119) (complex)

Kd [2]: 48000 nM | Kd [3]: 62000 nM | Kd [4]: 49500 nM
Substance: MR1 C262S loaded with acetyl-6-formylpterin (Ac-6-FP) (complex)

Kd [7]: 950 nM
Substance: peptide-loaded HLA-A*30:01/hβ2m (photolabile peptide) (from UniProt P61769 21-119) (peptide-MHC)

Kd [1]: 1680 nM | Kd [8]: 2540 nM
Substance: peptide-deficient (empty) HLA-A*24:02/hβ2m (from UniProt P61769 21-119) (complex)

Kd [8]: 1510 nM
Substance: peptide-deficient (empty) HLA-E*01:03/hβ2m (from UniProt P61769 21-119) (complex)

Kd [1]: 2960 nM | Kd [19]: 81 nM | Kd [20]: 188 nM | Kd [8]: 170 nM
Substance: peptide-deficient (empty) HLA-A*02:01/hβ2m (from UniProt P61769 21-119) (complex)

Kd [1]: 11200 nM
Substance: peptide-deficient (empty) HLA-G*01:01/hβ2m (from UniProt P61769 21-119) (complex)

Kd [1]: 910 nM | Kd [8]: 2040 nM
Substance: peptide-deficient (empty) HLA-A*11:01/hβ2m (from UniProt P61769 21-119) (complex)
